The target in this experiment is recombinant EGFR-Fc (AcroBiosystems) (human) (UniProt P00533). The experiment in a line: BLI (Octet QK), biotinylated binder on streptavidin sensor, EGFR-Fc 0-100 nM, 1:1 global fit. For orientation: In BLI a coated tip is dipped into the sample, and binding shifts an interference pattern.

A word on the Kd: it is a measure of binding affinity in units of concentration. Consider “AFF.EGFR (Z domain-based EGFR-binding affibody ZEGFR:1907) (designed binder)”, for which the Kd came out at 3.2 nM.

The record behind these values is patent publication US20220064326A1.
